The record followed here is article PMC12718381.

This assay has as its target HA-STIM1-L258C (UniProt Q13586). Put plainly: disulfide crosslinking, Western blot. As to conditions: diamide-treated STIM1/2 DKO HEK293 cells coexpressing HA-STIM1-L258C and a single mCh-STIM1 mutant; read off a plot. (In general: In western blotting, separated proteins are transferred to a membrane and probed.)
For mCh-STIM1 421C, the other: Crosslinking (%) stood at 1.8%.
mCh-STIM1 418C displayed an other: Crosslinking (%) of 3.8%.
With mCh-STIM1 417C, the other: Crosslinking (%) was determined as 2.9%.
In turn, mCh-STIM1 422C registered an other: Crosslinking (%) of 1.2%.
In turn, mCh-STIM1 424C yielded an other: Crosslinking (%) of 7%.
